Laboratory results taken from article doi:10.1101/2020.01.07.896506 (bioRxiv, 2020).

What was measured:
native gel or EMSA = target: the molecule itself; experiment: native gel or EMSA
SEC = target: the molecule itself; experiment: SEC

B1: recombinant GRXS17 (glutaredoxin GRXS17, Arabidopsis thaliana) (natural protein, UniProt Q9ZPH2 1-488, looked up)
chain: MSGTVKDIVSKAELDNLRQSGAPVVLHFWASWCDASKQMDQVFSHLATDFPRAHFFRVEAEEHPEISEAYSVAAVPYFVFFKDGKTVDTLEGADPSSLANKVGKVAGSSTSAEPAAPASLGLAAGPTILETVKENAKASLQDRAQPVSTADALKSRLEKLTNSHPVMLFMKGIPEEPRCGFSRKVVDILKEVNVDFGSFDILSDNEVREGLKKFSNWPTFPQLYCNGELLGGADIAIAMHESGELKDAFKDLGITTVGSKESQDEAGKGGGVSSGNTGLSETLRARLEGLVNSKPVMLFMKGRPEEPKCGFSGKVVEILNQEKIEFGSFDILLDDEVRQGLKVYSNWSSYPQLYVKGELMGGSDIVLEMQKSGELKKVLTEKGITGEQSLEDRLKALINSSEVMLFMKGSPDEPKCGFSSKVVKALRGENVSFGSFDILTDEEVRQGIKNFSNWPTFPQLYYKGELIGGCDIIMELSESGDLKATLSE
stoichiometry N (native gel or EMSA): 2

B2: recombinant GRXS17-C33S (natural protein, Arabidopsis thaliana, UniProt Q9ZPH2 1-488, looked up)
chain: MSGTVKDIVSKAELDNLRQSGAPVVLHFWASWSDASKQMDQVFSHLATDFPRAHFFRVEAEEHPEISEAYSVAAVPYFVFFKDGKTVDTLEGADPSSLANKVGKVAGSSTSAEPAAPASLGLAAGPTILETVKENAKASLQDRAQPVSTADALKSRLEKLTNSHPVMLFMKGIPEEPRCGFSRKVVDILKEVNVDFGSFDILSDNEVREGLKKFSNWPTFPQLYCNGELLGGADIAIAMHESGELKDAFKDLGITTVGSKESQDEAGKGGGVSSGNTGLSETLRARLEGLVNSKPVMLFMKGRPEEPKCGFSGKVVEILNQEKIEFGSFDILLDDEVRQGLKVYSNWSSYPQLYVKGELMGGSDIVLEMQKSGELKKVLTEKGITGEQSLEDRLKALINSSEVMLFMKGSPDEPKCGFSSKVVKALRGENVSFGSFDILTDEEVRQGIKNFSNWPTFPQLYYKGELIGGCDIIMELSESGDLKATLSE
binding result (SEC): binds

B3: recombinant GRXS17-C33S/C179S/C309S/C416S (natural protein, Arabidopsis thaliana, UniProt Q9ZPH2 1-488, looked up)
chain: MSGTVKDIVSKAELDNLRQSGAPVVLHFWASWSDASKQMDQVFSHLATDFPRAHFFRVEAEEHPEISEAYSVAAVPYFVFFKDGKTVDTLEGADPSSLANKVGKVAGSSTSAEPAAPASLGLAAGPTILETVKENAKASLQDRAQPVSTADALKSRLEKLTNSHPVMLFMKGIPEEPRSGFSRKVVDILKEVNVDFGSFDILSDNEVREGLKKFSNWPTFPQLYCNGELLGGADIAIAMHESGELKDAFKDLGITTVGSKESQDEAGKGGGVSSGNTGLSETLRARLEGLVNSKPVMLFMKGRPEEPKSGFSGKVVEILNQEKIEFGSFDILLDDEVRQGLKVYSNWSSYPQLYVKGELMGGSDIVLEMQKSGELKKVLTEKGITGEQSLEDRLKALINSSEVMLFMKGSPDEPKSGFSSKVVKALRGENVSFGSFDILTDEEVRQGIKNFSNWPTFPQLYYKGELIGGCDIIMELSESGDLKATLSE
stoichiometry N (SEC): 2
